This is an account of results in US20260015421A1.

The assay deals with CD19 on CD19+ cells (Raji, Nalm6) (human) (UniProt P15391). The experiment in a line: cell-based or functional assay.
UniProt P15391, sequence (P15391 20-556): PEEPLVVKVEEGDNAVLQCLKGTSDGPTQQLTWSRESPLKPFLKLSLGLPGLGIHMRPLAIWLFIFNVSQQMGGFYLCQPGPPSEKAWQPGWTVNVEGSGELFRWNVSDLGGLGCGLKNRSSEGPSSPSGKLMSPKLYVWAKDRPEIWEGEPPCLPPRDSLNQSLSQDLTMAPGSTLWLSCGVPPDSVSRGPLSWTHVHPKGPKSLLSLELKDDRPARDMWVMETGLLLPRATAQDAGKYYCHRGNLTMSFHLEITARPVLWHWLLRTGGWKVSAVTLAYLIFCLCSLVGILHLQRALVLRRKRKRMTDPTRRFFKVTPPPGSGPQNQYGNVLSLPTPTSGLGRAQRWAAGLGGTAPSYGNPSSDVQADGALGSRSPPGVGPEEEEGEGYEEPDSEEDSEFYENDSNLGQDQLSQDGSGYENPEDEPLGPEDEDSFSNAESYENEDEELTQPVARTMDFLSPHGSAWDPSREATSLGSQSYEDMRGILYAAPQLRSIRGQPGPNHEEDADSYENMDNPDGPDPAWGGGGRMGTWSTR

As for “non-signaling CD19 CAR FMC63-CD8h-CD28TMCo-noZ (IL15 co-expressed), on γδ T cells (from UniProt P01732 138-182; P10747 153-220)”, the cytotoxicity against CD19+ Nalm6 ALL cells (7-AAD/CFSE flow cytometry, E:T=0.25-4.0) (fold over non-transduced control) came out at 1.5.
